Blank lines part the entries; values can stand above or below the molecule they belong to.
Assays:
p75NTR [1] = biological target: p75NTR (UniProt Q9Z0W1); test: p75NTR IP, Flag-RhoGDI immunoblot; details: reference: wild type RhoGDI; sites S34
p75NTR [2] = biological target: p75NTR (UniProt Q9Z0W1); test: p75NTR IP, Flag immunoblot; details: reference: RhoGDI-59 wild type, PMA; sites S34
[3] = biological target: T1, human p75^NTR JXT domain (K273-D332) (human, UniProt P08138 273-332); test: NMR titration; unlabeled p75NTR JXT titrated to 15N-labeled RhoGDI NTD S34D, [1H-15N] HSQC, 28 °C, 10 mM PIPES pH 6.8; 0.3 mM RhoGDI NTD and 1.5 mM p75NTR JXT; details: both partners purified
T1 construct: juxtamembrane domain of human p75NTR, K273-D332, ~6.6 kDa; Cloned in a pET-32a-derived vector; unlabeled or 15N,13C-labeled for NMR; source: E. coli BL21 (DE3), purified (Ni-NTA, TEV cleavage, gel filtration, MonoS ion exchange)
T1 sequence (looked up): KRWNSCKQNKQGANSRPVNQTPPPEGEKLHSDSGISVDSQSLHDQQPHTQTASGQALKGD

- binding against the reference (p75NTR [1]): weaker
Molecule: RhoGDI (from UniProt Q99PT1) S34A

- binding against the reference (p75NTR [2]): lost
Molecule: RhoGDI RhoGDI-59, 59 N-terminal residues (fused to GST) (from UniProt Q99PT1) RhoGDI-59 S34A, PMA

- binding result [3]: binds
B1: human RhoGDI NTD^S34D (A2-A60) (domain or fragment, UniProt P52565 2-60, looked up)
chain: AEQEPTAEQLAQIAAENEEDEHSVNYKPPAQKDIQEIQELDKDDESLRKYKEALLGRVA
notes: N-terminal domain of RhoGDI, A2-A60, ~6.8 kDa, with the phosphorylation-mimetic mutation S34D; Cloned in a pET-32a-derived vector; 15N- or 15N,13C-labeled or unlabeled for NMR; source: E. coli BL21 (DE3), purified (Ni-NTA, TEV cleavage, gel filtration, MonoQ ion exchange)

From publication PMC10933337, “RhoGDI phosphorylation by PKC promotes its interaction with death receptor p75^NTR to gate axon growth and neuron survival” (EMBO Reports, 2024)
